Measured values published in the supplement of paper PMC10567573.
± gives the standard deviation.

Assay: protein stability index of a GFP-peptide fusion (GPS, HEK-293T) (PSI 1-6); higher = more stable
Conditions: c terminus: a fixed tail appended
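Further: 24-mer peptide tiles fused after GFP, lentivirally expressed, FACS-sorted into six equal bins by GFP/DsRed ratio, decoded by Illumina sequencing, PSI is the read-weighted mean bin number.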

| Sequence | protein stability index (treatment: DMSO) | protein stability index (treatment: MLN4924 1 uM, 8 h) |
| --- | --- | --- |
| APTKPHDYRQEQPETFWIQRAPQL [SPAG8] | 3.61 ± 0.11 | 3.73 ± 0.19 |
| PEARYLFLLDVIPVDGARYRWQGR [TBX6] | 2.08 ± 0.27 | 2.09 ± 0.31 |
| SAAGHLDVVRSLLRRGASVNRTTR [FEM1A] | 3.5 ± 0.33 | 3.75 ± 0.33 |
| TSFALERNLRTQQEIEDKMKGFSF [C8orf76] | 3.54 ± 0.19 | 3.53 ± 0.2 |
| LMQLQDIQYLTENIWASQSVLSAC [IQUB] | 2.67 ± 0.42 | 2.24 ± 0.37 |
| NESSLASTLKTLLFFTALMITVPI [VMA21] | 2.92 ± 0.19 | 3.07 ± 0.2 |
| SDVNDNAPRFNQQLYTAYILENRP [PCDHGC5] | 2.87 ± 0.26 | 3.1 ± 0.31 |
| EPAGGGRSREARSRLLLLEQELKT [SMAD6] | 4.63 ± 0.44 | 4.87 ± 0.088 |
| AEDEEMNRMHESMKLFDSICNNKW [GNAI1] | 3.97 ± 0.21 | 4.02 ± 0.22 |
| GIGHKVDAVFMKDGFFYFFHGTRQ [MMP1] | 2.4 ± 0.94 | 2.13 ± 0.23 |
| DYDLVLAEDEEMNRMHESMKLFDS [GNAI1] | 4.42 ± 0.26 | 4.84 ± 0.33 |
| RFTAESYTVLGDTLIDGGEHYWEV [FSD1] | 2.23 ± 0.3 | 2.5 ± 0.43 |
| KITKVMDVRLDREHRVAGIFPRLS [CLPTM1] | 2.69 ± 0.17 | 2.7 ± 0.36 |
| FFLFIGVILFSSAVYFAEAEEAES [KCNA1] | 2.81 ± 0.18 | 2.78 ± 0.34 |
| MKAHSFVRENVPRVLNSAKEKSST [SOAT1] | 4.58 ± 0.12 | 4.57 ± 0.13 |
| IQMVNESLGYVRSQFLKLKTSVEK [CD207] | 3.34 ± 0.21 | 3.29 ± 0.13 |
| QHYQQYMQQLYQVQLAQQQAALQK [ACBD3] | 2.23 ± 0.23 | 2.21 ± 0.23 |
| TCEDDEDEELGGSSRVPVGGGPEA [ZBTB22] | 5.49 ± 0.14 | 5.38 ± 0.61 |
| PGAFGTILTFLRAGKLRLLREMCA [KCNG1] | 2.84 ± 0.33 | 2.8 ± 0.062 |
| AKRLWKVCVEHHTFFRLLLPEAPP [EPB41L3] | 2.48 ± 0.88 | 2.42 ± 0.76 |
| VEKETQEKMTILQTYFRQNRDEVL [ATP6V1G1] | 3.61 ± 0.34 | 3.78 ± 0.26 |
| MATPDAGLPGAEGVEPAPWAQLEA [FANCE] | 4.86 ± 0.32 | 4.96 ± 0.27 |

| Sequence | protein stability index (treatment: DMSO) | protein stability index (treatment: MLN4924 1 uM, 8 h) |
| --- | --- | --- |
| AYPFYWAWLPQAKVPFSQEIKDLI [PI4K2A] | 2.23 ± 0.32 | 2.13 ± 0.14 |
| KNSTMVNSEDIFLLLCLKVDNHFN [TRIM43] | 2.98 ± 0.57 | 2.84 ± 0.51 |
| LIGDTLLVAPVLEPGKQERDVYLP [MYORG] | 3.23 ± 0.12 | 3.03 ± 0.22 |
| RTTKPMAQRSAHCSRPSGSSSSSG [CSNK1G1] | 4.39 ± 0.18 | 4.43 ± 0.2 |
| NRELWKEFSSVGTEMIITKAGRRM [TBX6] | 2.88 ± 0.27 | 3.21 ± 0.4 |
| RQLVEADINGLRRILDELTLCKAD [KRT36] | 3.2 ± 0.24 | 3.32 ± 0.26 |
| RLASYLDKVRALEEANADLEVKIR [KRT16] | 2.39 ± 0.26 | 2.59 ± 0.5 |
| DYWNLQKDYYPINESLASLPLRVS [CLPTM1] | 2.4 ± 0.2 | 2.52 ± 0.17 |
| VAKLESECLKRQGQREPGSLSRNN [FBXO34] | 4.77 ± 0.098 | 4.75 ± 0.35 |
| NRDEHSSRGYRNHRSSRETRDYAP [RBMY1A1] | 4.74 ± 0.072 | 4.63 ± 0.095 |
| HNTTEAPGPHSAKQDSYEQGDSSQ [ZC2HC1C] | 5.45 ± 0.29 | 5.46 ± 0.32 |
| RRLGLSTLGELKQNLSRSWHDVQV [TPD52L2] | 2.9 ± 0.24 | 2.96 ± 0.24 |
| FDQLKQFLTFDKQVLRFYAIWDDT [EFHC1] | 2.31 ± 0.2 | 2.13 ± 0.33 |
| LLVYDITNRWSFDGIDRWIKEIDE [RAB40C] | 2.05 ± 0.22 | 2.18 ± 0.45 |
| RRHCQACRLKRCVDIGMMKEFILT [VDR] | 2.77 ± 0.72 | 2.15 ± 0.28 |
| DLVERALYSMECAFHPLFSLTSGA [TCF25] | 3.09 ± 1.3 | 2.84 ± 0.93 |
| EAFTLMDQNRDGFIDKEDLKDTYA [MYL5] | 4.69 ± 0.25 | 4.88 ± 0.11 |
| WDSGCLAPPSTRTSHSLPESSVPS [PLEKHN1] | 4.4 ± 0.59 | 4.64 ± 0.23 |
| NIYENGDVCISILHPPVDDPQSGE [UBE2R2] | 4.37 ± 0.1 | 4.55 ± 0.087 |
| PLSLVKRTDLKDLIIFDKQSSQRM [CEP70] | 2.97 ± 0.51 | 3.18 ± 0.44 |
| GSEMGLSSHLQSSKAGPTRIFTSN [KLHL13] | 3.78 ± 0.17 | 3.77 ± 0.23 |
| LSCTLVPRSGEQAEGSPGGPGDSQ [CDKN1A] | 5.03 ± 0.41 | 5.05 ± 0.13 |
